Patent US20170190753A1 (LABORATOIRE FRANCAIS DU FRACTIONNEMENT ET DES …, published 2017)

B1: pCEP4-1NT9-19CT20 (other)
chain: EDCNELPPRRNTEILTGSWSDQTYPEGTQAIYKCRPGYRSLGNVIMVCRKGEWVALNPLRKCQKRPCGHPGDTPFGTFTLTGGNVFEYGVKAVYTCNEGYQLLGEINYRECDTDGWTNDIPICEVVKCLPVTAPENGKIVSSAMEPDREYHFGQAVRFVCNSGYKIEGDEEMHCSDDGFWSKEKPKCVEISCKSPDVINGSPISQKIIYKENERFQYKCNMGYEYSERGDAVCTESGWRPLPSCEEKSCDNPYIPNGDYSPLRIKHRTGDEITYQCRNGFYPATRGNTAKCTSTGWIPAPRCTLKPCDYPDIKHGGLYHENMRRPYFPVAVGKYYSYYCDEHFETPSGSYWDHIHCTQDGWSPAVPCLRKCYFPYLENGYNQNYGRKFVQGKSIDVACHPGYALPKAQTTVTCMENGWSPTPRCIRVKTCSKSSIDIENGFISESQYTYALKEKAKYQCKLGYVTADGETSGSITCGKDGWSAQPTCIKSCDIPVFMNARTKNDFTWFKLNDTLDYECHDGYESNTGSTTGSIVCGYNGWSDLPICYEREGASGCGPPPPIDNGDITSFPLSVYAPASSVEYQCQNLYQLEGNKRITCRNGQWSEPPKCLHPCVISREIMENYNIALRWTAKQKLYSRTGESVEFVCKRGYRLSSRSHTLRTTCWDGKLEYPTCAKRGGSGHHHHHH
B2: pCEP4-1NT7-9CT20 (other)
chain: EDCNELPPRRNTEILTGSWSDQTYPEGTQAIYKCRPGYRSLGNVIMVCRKGEWVALNPLRKCQKRPCGHPGDTPFGTFTLTGGNVFEYGVKAVYTCNEGYQLLGEINYRECDTDGWTNDIPICEVVKCLPVTAPENGKIVSSAMEPDREYHFGQAVRFVCNSGYKIEGDEEMHCSDDGFWSKEKPKCVEISCKSPDVINGSPISQKIIYKENERFQYKCNMGYEYSERGDAVCTESGWRPLPSCEEKSCDNPYIPNGDYSPLRIKHRTGDEITYQCRNGFYPATRGNTAKCTSTGWIPAPRCTLKPCDYPDIKHGGLYHENMRRPYFPVAVGKYYSYYCDEHFETPSGSYWDHIHCTQDGWSPAVPCLRKCYFPYLENGYNQNYGRKFVQGKSIDVACHPGYALPKAQTTVTCMENGWSPTPRCIRVKTGASGCDIPVFMNARTKNDFTWFKLNDTLDYECHDGYESNTGSTTGSIVCGYNGWSDLPICYERECELPKIDVHLVPDRKKDQYKVGEVLKFSCKPGFTIVGPNSVQCYHFGLSPDLPICKEQVQSCGPPPELLNGNVKEKTKEEYGHSEVVEYYCNPRFLMKGPNKIQCVDGEWTTLPVCIVEESTCGDIPELEHGWAQLSSPPYYYGDSVEFNCSESFTMIGHRSITCIHGVWTQLPQCVAIDKLKKCKSSNLIILEEHLKNKKEFDHNSNIRYRCRGKEGWIHTVCINGRWDPEVNCSMAQIQLCPPPPQIPNSHNMTTTLNYRDGEKVSVLCQENYLIQEGEEITCKDGRWQSIPLCVEKIPCSQPPQIEHGTINSSRSSQESYAHGTKLSYTCEGGFRISEENETTCYMGKWSSPPQCEGLPCKSPPEISHGVVAHMSDSYQYGEEVTYKCFEGFGIDGPAIAKCLGEKWSHPPSCIKTDCLSLPSFENAIPMGEKKDVYKAGEQVTYTCATYYKMDGASNVTCINSRWTGRPTCRDTSCVNPPTVQNAYIVSRQMSKYPSGERVRYQCRSPYEMFGDEEVMCLNGNWTEPPQCKDSTGKCGPPPPIDNGDITSFPLSVYAPASSVEYQCQNLYQLEGNKRITCRNGQWSEPPKCLHPCVISREIMENYNIALRWTAKQKLYSRTGESVEFVCKRGYRLSSRSHTLRTTCWDGKLEYPTCAKRGGSGHHHHHH
B3: pCEP4-1NT8-15CT20 (other)
chain: EDCNELPPRRNTEILTGSWSDQTYPEGTQAIYKCRPGYRSLGNVIMVCRKGEWVALNPLRKCQKRPCGHPGDTPFGTFTLTGGNVFEYGVKAVYTCNEGYQLLGEINYRECDTDGWTNDIPICEVVKCLPVTAPENGKIVSSAMEPDREYHFGQAVRFVCNSGYKIEGDEEMHCSDDGFWSKEKPKCVEISCKSPDVINGSPISQKIIYKENERFQYKCNMGYEYSERGDAVCTESGWRPLPSCEEKSCDNPYIPNGDYSPLRIKHRTGDEITYQCRNGFYPATRGNTAKCTSTGWIPAPRCTLKPCDYPDIKHGGLYHENMRRPYFPVAVGKYYSYYCDEHFETPSGSYWDHIHCTQDGWSPAVPCLRKCYFPYLENGYNQNYGRKFVQGKSIDVACHPGYALPKAQTTVTCMENGWSPTPRCIRVKTCSKSSIDIENGFISESQYTYALKEKAKYQCKLGYVTADGETSGSITCGKDGWSAQPTCIKSGASGCSQPPQIEHGTINSSRSSQESYAHGTKLSYTCEGGFRISEENETTCYMGKWSSPPQCEGLPCKSPPEISHGVVAHMSDSYQYGEEVTYKCFEGFGIDGPAIAKCLGEKWSHPPSCIKTDCLSLPSFENAIPMGEKKDVYKAGEQVTYTCATYYKMDGASNVTCINSRWTGRPTCRDTSCVNPPTVQNAYIVSRQMSKYPSGERVRYQCRSPYEMFGDEEVMCLNGNWTEPPQCKDSTGKCGPPPPIDNGDITSFPLSVYAPASSVEYQCQNLYQLEGNKRITCRNGQWSEPPKCLHPCVISREIMENYNIALRWTAKQKLYSRTGESVEFVCKRGYRLSSRSHTLRTTCWDGKLEYPTCAKRGGSGHHHHHH
B4: pCEP4-1NT4-15CT20 (other)
chain: EDCNELPPRRNTEILTGSWSDQTYPEGTQAIYKCRPGYRSLGNVIMVCRKGEWVALNPLRKCQKRPCGHPGDTPFGTFTLTGGNVFEYGVKAVYTCNEGYQLLGEINYRECDTDGWTNDIPICEVVKCLPVTAPENGKIVSSAMEPDREYHFGQAVRFVCNSGYKIEGDEEMHCSDDGFWSKEKPKCVEISCKSPDVINGSPISQKIIYKENERFQYKCNMGYEYSERGDAVCTESGWRPLPSCEEKSGASGCSQPPQIEHGTINSSRSSQESYAHGTKLSYTCEGGFRISEENETTCYMGKWSSPPQCEGLPCKSPPEISHGVVAHMSDSYQYGEEVTYKCFEGFGIDGPAIAKCLGEKWSHPPSCIKTDCLSLPSFENAIPMGEKKDVYKAGEQVTYTCATYYKMDGASNVTCINSRWTGRPTCRDTSCVNPPTVQNAYIVSRQMSKYPSGERVRYQCRSPYEMFGDEEVMCLNGNWTEPPQCKDSTGKCGPPPPIDNGDITSFPLSVYAPASSVEYQCQNLYQLEGNKRITCRNGQWSEPPKCLHPCVISREIMENYNIALRWTAKQKLYSRTGESVEFVCKRGYRLSSRSHTLRTTCWDGKLEYPTCAKRGGSGHHHHHH
B5: pCEP4-1NT7-15CT20 (other)
chain: EDCNELPPRRNTEILTGSWSDQTYPEGTQAIYKCRPGYRSLGNVIMVCRKGEWVALNPLRKCQKRPCGHPGDTPFGTFTLTGGNVFEYGVKAVYTCNEGYQLLGEINYRECDTDGWTNDIPICEVVKCLPVTAPENGKIVSSAMEPDREYHFGQAVRFVCNSGYKIEGDEEMHCSDDGFWSKEKPKCVEISCKSPDVINGSPISQKIIYKENERFQYKCNMGYEYSERGDAVCTESGWRPLPSCEEKSCDNPYIPNGDYSPLRIKHRTGDEITYQCRNGFYPATRGNTAKCTSTGWIPAPRCTLKPCDYPDIKHGGLYHENMRRPYFPVAVGKYYSYYCDEHFETPSGSYWDHIHCTQDGWSPAVPCLRKCYFPYLENGYNQNYGRKFVQGKSIDVACHPGYALPKAQTTVTCMENGWSPTPRCIRVKTGASGCSQPPQIEHGTINSSRSSQESYAHGTKLSYTCEGGFRISEENETTCYMGKWSSPPQCEGLPCKSPPEISHGVVAHMSDSYQYGEEVTYKCFEGFGIDGPAIAKCLGEKWSHPPSCIKTDCLSLPSFENAIPMGEKKDVYKAGEQVTYTCATYYKMDGASNVTCINSRWTGRPTCRDTSCVNPPTVQNAYIVSRQMSKYPSGERVRYQCRSPYEMFGDEEVMCLNGNWTEPPQCKDSTGKCGPPPPIDNGDITSFPLSVYAPASSVEYQCQNLYQLEGNKRITCRNGQWSEPPKCLHPCVISREIMENYNIALRWTAKQKLYSRTGESVEFVCKRGYRLSSRSHTLRTTCWDGKLEYPTCAKRGGSGHHHHHH
B6: pCEP4-1NT9-13CT20 (other)
chain: EDCNELPPRRNTEILTGSWSDQTYPEGTQAIYKCRPGYRSLGNVIMVCRKGEWVALNPLRKCQKRPCGHPGDTPFGTFTLTGGNVFEYGVKAVYTCNEGYQLLGEINYRECDTDGWTNDIPICEVVKCLPVTAPENGKIVSSAMEPDREYHFGQAVRFVCNSGYKIEGDEEMHCSDDGFWSKEKPKCVEISCKSPDVINGSPISQKIIYKENERFQYKCNMGYEYSERGDAVCTESGWRPLPSCEEKSCDNPYIPNGDYSPLRIKHRTGDEITYQCRNGFYPATRGNTAKCTSTGWIPAPRCTLKPCDYPDIKHGGLYHENMRRPYFPVAVGKYYSYYCDEHFETPSGSYWDHIHCTQDGWSPAVPCLRKCYFPYLENGYNQNYGRKFVQGKSIDVACHPGYALPKAQTTVTCMENGWSPTPRCIRVKTCSKSSIDIENGFISESQYTYALKEKAKYQCKLGYVTADGETSGSITCGKDGWSAQPTCIKSCDIPVFMNARTKNDFTWFKLNDTLDYECHDGYESNTGSTTGSIVCGYNGWSDLPICYEREGASGCKSSNLIILEEHLKNKKEFDHNSNIRYRCRGKEGWIHTVCINGRWDPEVNCSMAQIQLCPPPPQIPNSHNMTTTLNYRDGEKVSVLCQENYLIQEGEEITCKDGRWQSIPLCVEKIPCSQPPQIEHGTINSSRSSQESYAHGTKLSYTCEGGFRISEENETTCYMGKWSSPPQCEGLPCKSPPEISHGVVAHMSDSYQYGEEVTYKCFEGFGIDGPAIAKCLGEKWSHPPSCIKTDCLSLPSFENAIPMGEKKDVYKAGEQVTYTCATYYKMDGASNVTCINSRWTGRPTCRDTSCVNPPTVQNAYIVSRQMSKYPSGERVRYQCRSPYEMFGDEEVMCLNGNWTEPPQCKDSTGKCGPPPPIDNGDITSFPLSVYAPASSVEYQCQNLYQLEGNKRITCRNGQWSEPPKCLHPCVISREIMENYNIALRWTAKQKLYSRTGESVEFVCKRGYRLSSRSHTLRTTCWDGKLEYPTCAKRGGSGHHHHHH

Target: C3 convertase complex (UniProt P01024 23-1663; P00751 260-764)
Sequence (P01024 23-1663, chain 1 of 2): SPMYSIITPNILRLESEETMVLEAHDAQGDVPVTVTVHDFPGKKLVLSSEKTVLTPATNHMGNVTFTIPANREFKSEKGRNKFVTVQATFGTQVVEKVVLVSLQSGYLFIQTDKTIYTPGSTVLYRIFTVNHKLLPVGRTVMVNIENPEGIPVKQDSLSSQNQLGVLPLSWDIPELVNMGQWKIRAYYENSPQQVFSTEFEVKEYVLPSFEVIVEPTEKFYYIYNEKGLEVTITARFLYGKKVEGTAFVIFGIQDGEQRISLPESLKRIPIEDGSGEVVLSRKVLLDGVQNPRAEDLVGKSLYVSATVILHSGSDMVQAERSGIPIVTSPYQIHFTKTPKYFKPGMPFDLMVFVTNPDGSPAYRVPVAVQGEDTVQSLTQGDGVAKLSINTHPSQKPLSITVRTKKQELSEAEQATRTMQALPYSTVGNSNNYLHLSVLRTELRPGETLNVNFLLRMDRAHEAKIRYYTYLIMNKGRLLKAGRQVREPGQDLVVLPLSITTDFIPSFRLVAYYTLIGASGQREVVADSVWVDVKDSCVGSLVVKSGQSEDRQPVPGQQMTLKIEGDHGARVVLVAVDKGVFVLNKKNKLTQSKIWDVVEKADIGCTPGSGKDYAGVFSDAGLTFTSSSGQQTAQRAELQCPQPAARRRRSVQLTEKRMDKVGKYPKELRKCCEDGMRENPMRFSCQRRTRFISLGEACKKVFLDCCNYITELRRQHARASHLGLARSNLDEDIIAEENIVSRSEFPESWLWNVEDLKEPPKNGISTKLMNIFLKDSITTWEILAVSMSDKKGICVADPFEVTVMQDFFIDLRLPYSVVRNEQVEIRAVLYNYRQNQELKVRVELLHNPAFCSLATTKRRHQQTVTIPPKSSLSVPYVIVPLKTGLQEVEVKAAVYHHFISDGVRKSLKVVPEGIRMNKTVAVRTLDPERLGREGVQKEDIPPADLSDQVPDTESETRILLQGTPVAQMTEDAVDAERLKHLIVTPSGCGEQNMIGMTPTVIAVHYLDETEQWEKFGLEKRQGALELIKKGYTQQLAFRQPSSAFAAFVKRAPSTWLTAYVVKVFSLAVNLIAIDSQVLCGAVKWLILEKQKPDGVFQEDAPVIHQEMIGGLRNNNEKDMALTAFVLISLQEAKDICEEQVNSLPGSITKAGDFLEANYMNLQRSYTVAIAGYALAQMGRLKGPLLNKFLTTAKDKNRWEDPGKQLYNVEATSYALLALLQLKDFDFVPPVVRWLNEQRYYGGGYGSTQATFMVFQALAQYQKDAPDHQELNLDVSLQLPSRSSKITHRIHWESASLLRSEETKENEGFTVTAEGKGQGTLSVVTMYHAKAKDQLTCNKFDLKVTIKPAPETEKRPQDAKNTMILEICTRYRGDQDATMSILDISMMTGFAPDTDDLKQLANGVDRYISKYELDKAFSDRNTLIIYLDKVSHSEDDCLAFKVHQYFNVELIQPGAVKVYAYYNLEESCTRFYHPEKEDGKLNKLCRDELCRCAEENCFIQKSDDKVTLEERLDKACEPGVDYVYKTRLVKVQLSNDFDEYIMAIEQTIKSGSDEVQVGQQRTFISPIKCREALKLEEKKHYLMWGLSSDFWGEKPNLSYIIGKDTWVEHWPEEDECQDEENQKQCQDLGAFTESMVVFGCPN
Sequence (P00751 260-764, chain 2 of 2): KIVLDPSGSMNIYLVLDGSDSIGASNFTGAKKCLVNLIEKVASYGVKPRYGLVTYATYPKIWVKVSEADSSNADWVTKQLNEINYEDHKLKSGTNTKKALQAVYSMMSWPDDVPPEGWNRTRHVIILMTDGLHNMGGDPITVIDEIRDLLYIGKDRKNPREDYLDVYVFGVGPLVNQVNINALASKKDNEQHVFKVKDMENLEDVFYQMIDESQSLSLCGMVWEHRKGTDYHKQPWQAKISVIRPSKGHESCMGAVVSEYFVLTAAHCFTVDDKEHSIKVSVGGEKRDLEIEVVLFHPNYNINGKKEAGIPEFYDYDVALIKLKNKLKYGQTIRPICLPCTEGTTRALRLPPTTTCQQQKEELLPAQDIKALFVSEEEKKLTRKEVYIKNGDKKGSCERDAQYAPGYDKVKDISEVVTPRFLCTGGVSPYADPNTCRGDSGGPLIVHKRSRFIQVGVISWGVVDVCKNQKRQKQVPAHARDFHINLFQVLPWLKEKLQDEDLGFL
Experiment: cell-based or functional assay
Wherever C3 convertase activity % of the control is given: test concentration or dose not given here.

Row | Binder | C3 convertase activity % of the control | C3 convertase activity IC50 [µg/mL]
1 | B1 | 49 % of the control | 0.217
2 | B2 | 156 % of the control | 0.252
3 | B3 | 58 % of the control | 0.628
4 | B4 | 58 % of the control | 0.206
5 | B5 | 56 % of the control | 0.639
6 | B6 | 56 % of the control | 0.166
